Patent US20130251719A1

Target: PCV2-ORF2-antigens coated on ELISA plates (porcine circovirus type 2 (PCV2))
Test: competitive ELISA on PCV2-ORF2-antigens, competitor HRP-conjugated anti-PCV2 mab; residual signal of the mab

In the case of “positive control of commercialized testkit (Ingenasa)”, the OD is reported as 0.343 OD at 450 nm.
